In the supplement of paper PMC11246515:
± gives the standard deviation of the averaged measurements.

Assay: total protein half-life in vivo (active degradation + dilution); higher = more stable protein
[1] = E. coli NCM3722 delta-clpP delta-lon delta-hslV, growth: N-lim chemostat, doubling time 6 h
[2] = E. coli NCM3722 delta-clpP, growth: N-lim chemostat, doubling time 6 h
[3] = E. coli NCM3722 delta-hslV, growth: N-lim chemostat, doubling time 6 h
[4] = E. coli NCM3722 delta-lon, growth: N-lim chemostat, doubling time 6 h
[5] = E. coli NCM3722 delta-smpB, growth: N-lim chemostat, doubling time 6 h
[6] = wild type E. coli NCM3722, growth: C-lim chemostat, doubling time 3 h
[7] = wild type E. coli NCM3722, growth: C-lim chemostat, doubling time 6 h
[8] = wild type E. coli NCM3722, growth: C-lim chemostat, doubling time 12 h
[9] = wild type E. coli NCM3722, growth: N-lim chemostat, doubling time 6 h
[10] = wild type E. coli NCM3722, growth: N-lim chemostat, doubling time 12 h
[11] = wild type E. coli NCM3722, growth: P-lim chemostat, doubling time 6 h
[12] = wild type E. coli NCM3722, growth: P-lim chemostat, doubling time 12 h

| Sequence | total protein half-life in vivo [1] [h] | total protein half-life in vivo [2] [h] | total protein half-life in vivo [3] [h] | total protein half-life in vivo [4] [h] | total protein half-life in vivo [5] [h] | total protein half-life in vivo [6] [h] | total protein half-life in vivo [7] [h] | total protein half-life in vivo [8] [h] | total protein half-life in vivo [9] [h] | total protein half-life in vivo [10] [h] | total protein half-life in vivo [11] [h] | total protein half-life in vivo [12] [h] |
| --- | --- | --- | --- | --- | --- | --- | --- | --- | --- | --- | --- | --- |
| MNQIDRLLTIMQRLRDPENGCPWDKEQTFATIAPYTLEETYEVLDAIAREDFDDLRGELGDLLFQVVFYAQMAQEEGRFDFNDICAAISDKLERRHPHVFADSSAENSSEVLARWEQIKTEERAQKAQHSALDDIPRSLPALMRAQKIQKRCANVGFDWTTLGPVVDKVYEEIDEVMYEARQAVVDQAKLEEEMGDLLFATVNLARHLGTKAEIALQKANEKFERRFREVERIVAARGLEMTGVDLETMEEVWQQVKRQEIDL [P0AEY3] | 4.85 ± 0.48 | 4.1 ± 0.46 | 2.49 ± 0.062 | 3.25 ± 0.4 | 2.49 ± 0.12 | 2.51 ± 0.056 | 5.06 ± 0.058 | 6.42 ± 0.2 | 2.624 ± 0.016 | 3.29 ± 0.12 | 3.61 ± 0.13 | 6.14 ± 1.5 |
| MNRFSKTQIYLHWITLLFVAITYAAMELRGWFPKGSSTYLLMRETHYNAGIFVWVLMFSRLIIKHRYSDPSIVPPPPAWQMKAASLMHIMLYITFLALPLLGIALMAYSGKSWSFLGFNVSPFVTPNSEIKALIKNIHETWANIGYFLIAAHAGAALFHHYIQKDNTLLRMMPRRK | – | – | – | – | 5.19 | 3.2 | – | – | – | – | – | > 16 |
| MNRRRKLLIPLLFCGAMLTACDDKSAENAAAMTPEVGVVTLSPGSVNVLSELPGRTVPYEVAEIRPQVGGIIIKRNFIEGDKVNQGDSLYQIDPAPLQAELNSAKGSLAKALSTASNARITFNRQASLLKTNYVSRQDYDTARTQLNEAEANVTVAKAAVEQATINLQYANVTSPITGVSGKSSVTVGALVTANQADSLVTVQRLDPIYVDLTQSVQDFLRMKEEVASGQIKQVQGSTPVQLNLENGKRYSQTGTLKFSDPTVDETTGSVTLRAIFPNPNGDLLPGMYVTALVDEGSRQNVLLVPQEGVTHNAQGKATALILDKDDVVQLREIEASKAIGDQWVVTSGLQAGDRVIVSGLQRIRPGIKARAISSSQENASTESKQ | 5.76 ± 0.3 | 6.22 ± 0.68 | 6.15 ± 0.1 | 6.24 ± 0.35 | 5.05 ± 0.34 | 2.98 | 6.09 | > 16 | 5.92 ± 0.32 | 10.6 ± 0.88 | 3.99 ± 0.38 | 8.12 ± 0.25 |
| MNSLQILSFVGFTLLVAVITWWKVRKTDTGSQQGYFLAGRSLKAPVIAASLMLTNLSTEQLVGLSGQAYKSGMSVMGWEVTSAVTLIFLALIFLPRYLKRGIATIPDFLEERYDKTTRIIIDFCFLIATGVCFLPIVLYSGALALNSLFHVGESLQISHGAAIWLLVILLGLAGILYAVIGGLRAMAVADSINGIGLVIGGLMVPVFGLIAMGKGSFMQGIEQLTTVHAEKLNSIGGPTDPLPIGAAFTGLILVNTFYWCTNQGIVQRTLASKSLAEGQKGALLTAVLKMLDPLVLVLPGLIAFHLYQDLPKADMAYPTLVNNVLPVPMVGFFGAVLFGAVISTFNGFLNSASTLFSMGIYRRIINQNAEPQQLVTVGRKFGFFIAIVSVLVAPWIANAPQGLYSWMKQLNGIYNVPLVTIIIMGFFFPRIPALAAKVAMGIGIISYITINYLVKFDFHFLYVLACTFCINVVVMLVIGFIKPRATPFTFKDAFAVDMKPWKNVKIASIGILFAMIGVYAGLAEFGGYGTRWLAMISYFIAAVVIVYLIFDSWRHRHDPAVTFTPDGKDSL | 3.19 | – | – | – | – | – | – | – | – | – | – | – |
| MNTISSLETTDLPAAYHIEQRAHAFPWSEKTFASNQGERYLNFQLTQNGKMAAFAITQVVLDEATLFNIAVDPDYQRQGLGRALLEHLIDELEKRGVATLWLEVRASNAAAIALYESLGFNEATIRRNYYPTTDGREDAIIMALPISM [P0A944] | 5.64 | 4.51 | – | 4.5 ± 0.79 | 3.85 | > 4 | – | 15.9 | 3.845 ± 0.034 | 6.18 | 4.53 | 8.18 |
| MNTIVFVEDDAEVGSLIAAYLAKHDMQVTVEPRGDQAEETILRENPDLVLLDIMLPGKDGMTICRDLRAKWSGPIVLLTSLDSDMNHILALEMGACDYILKTTPPAVLLARLRLHLRQNEQATLTKGLQETSLTPYKALHFGTLTIDPINRVVTLANTEISLSTADFELLWELATHAGQIMDRDALLKNLRGVSYDGLDRSVDVAISRLRKKLLDNAAEPYRIKTVRNKGYLFAPHAWE | 5.2 ± 1.1 | 4.29 ± 0.89 | 3.1 ± 0.46 | 3.95 ± 0.079 | 3.58 ± 0.22 | 3.05 ± 0.78 | 5.03 ± 0.43 | 7.3 ± 0.64 | 3.662 ± 0.028 | 5.27 ± 0.083 | 4.82 ± 0.53 | 7.92 ± 0.17 |
| MNTNVFRLLLLGSLFSLSACVQQSEVRQMKHSVSTLNQEMTQLNQETVKITQQNRLNAKSSSGVYLLPGAKTPARLESQIGTLRMSLVNITPDADGTTLTLRIQGESNDPLPAFSGTVEYGQIQGTIDNFQEINVQNQLINAPASVLAPSDVDIPLQLKGISVDQLGFVRIHDIQPVMQ | 6.62 ± 0.76 | – | – | 6.77 ± 0.76 | 6.22 ± 0.65 | – | 5.54 ± 0.6 | 11.3 | 5.64 ± 1.1 | 13.9 | 6.02 ± 0.69 | 12.7 ± 1.5 |
| MNTPAQLSLPLYLPDDETFASFWPGDNSSLLAALQNVLRQEHSGYIYLWAREGAGRSHLLHAACAELSQRGDAVGYVPLDKRTWFVPEVLDGMEHLSLVCIDNIECIAGDELWEMAIFDLYNRILESGKTRLLITGDRPPRQLNLGLPDLASRLDWGQIYKLQPLSDEDKLQALQLRARLRGFELPEDVGRFLLKRLDREMRTLFMTLDQLDRASITAQRKLTIPFVKEILKL | 5.11 ± 0.35 | 4.947 ± 0.022 | 5.42 ± 0.81 | 4.21 ± 0.21 | 4.29 ± 0.12 | 2.74 ± 0.07 | 5.7 ± 1.3 | 9.48 ± 1.9 | 4.404 ± 0.034 | 7.28 ± 0.61 | 5.14 ± 0.064 | 10.6 ± 0.12 |
| MNTRQLLSVGIDIGTTTTQVIFSRLELVNRAAVSQVPRYEFIKREISWQSPVFFTPVDKQGGLKEAELKTLILEQYHAAGIEPESVDSGAIIITGESAKTRNARPAVMALSQSLGDFVVASAGPHLESVIAGHGAGAQTLSEQRLCRVLNIDIGGGTANYALFDAGKISGTACLNVGGRLLETDSHGRVVYAHKPGQMIVDECFGAGTDARSLTGAQLVQVTRRMAELIVEVIDGTLSPLAQALMQTGLLPAGVTPEIITLSGGVGECYRHQPADPFCFADIGPLLATALHDHPRLREMNVQFPAQTVRATVIGAGAHTLSLSGSTIWLEGVQLPLRNLPVAIPIDETDLVGAWQQALIQLDLDPKTDAYVLALPASLPVRYAAVLTVINALVDFVARFPNPHPLLVVAGQDFGKALGMLLRPQLQQLPLAVIDEVIVRAGDYIDIGTPLFGGSVVPVTVKSLAFPS | 5.67 | – | – | – | – | – | – | – | – | – | – | – |
